# In patent US20010006793A1, “MODULATORS OF EUKARYOTIC CASPASES” (priority 1998, published 2001):
# B1: Viral protein p35: known viral protein caspase inhibitor, expressed from YCpGAL1-p35-U vector (protein)
# chain: MCVIFPVEIDVSQTIIRDCQVDKQTRELVYINKIMNTQLTKPVLMMFNISGPIRSVTRKNNNLRDRIKSKVDEQFDQLERDYSDQMDGFHDSIKYFKDEHYSVSCQNGSVLKSKFAKILKSHDYTDKKSIEAYEKYCLPKLVDERNDYYVAVCVLKPGFENGSNQVLSFEYNPIGNKVIVPFAHEINDTGLYEYDVVAYVDSVQFDGEQFEEFVQSLILPSSFKNSEKVLYYNEASKNKSMIYKALEFTTESSWGKSEKYNWKIFCNGFIYDKKSKVLYVKLHNVTSALNKNVILNTIK
# B2: Human hnRNP D: product encoded by human brain cDNA, identified as caspase inhibitor (protein, UniProt Q14103 2-355, looked up)
# Heterogeneous nuclear …: SEEQFGGDGAAAAATAAVGGSAGEQEGAMVAATQGAAAAAGSGAGTGGGTASGGTEGGSAESEGAKIDASKNEEDEGHSNSSPRHSEAATAQREEWKMFIGGLSWDTTKKDLKDYFSKFGEVVDCTLKLDPITGRSRGFGFVLFKESESVDKVMDQKEHKLNGKVIDPKRAKAMKTKEPVKKIFVGGLSPDTPEEKIREYFGGFGEVESIELPMDNKTNKRRGFCFITFKEEEPVKKIMEKKYHNVGLSKCEIKVAMSKEQYQQQQQWGSRGGFAGRARGRGGGPSQNWNQGYSNYWNQGYGNYGYNSQGYGGYGGYDYTGYNNYYGYGDYSNQQSGYGKVSRRGGHQNSYKPY
# B3: Human Tissue Inhibitor of Metalloprotease-3: product encoded by human brain cDNA, identified as caspase inhibitor (protein)
# chain: CTCSPSHPQDAFCNSDIVIRAKVVGKKLVKEGPFGTLVYTIKQMKMYRGFTKMPHVQYIHTEASESLCGLKLEVNKYQYLLTGRVYDGKMYTGLCNFVERWDQLTLSQRKGLNYRYHLGCNCKIKSCYYLPCFVTSKNECLWTDMLSNFGYPGYQSKHYACIRQKGGYCSWYRGWAPPDKSIINATDP
# B4: Human Death Associated Protein 1: product encoded by human brain cDNA; also known as DAP-1 (protein)
# chain: MSSPPEGKLETKAGHPPAVKAGGMRIVQKHPHTGDTKEEKDKDDQEWESPSPPKPTVFISGVIARGDKDFPPAAAQVAHQKPHASMDKHPSPRTQHIQQPRK
# B5: Human Myelin Basic Protein: product encoded by human brain cDNA, identified as caspase inhibitor (protein)
# chain: MASQKRPSQRHGSKYLATASTMDHARHGFLPRHRDTGILDSIGRFFGGDRGAPKRGSGKDSHHPARTAHYGSLPQKSHGRTQDENPVVHFFKNIVTPRTPPPSQGKGRGLSLSRFSWGAEGQRPGFGYGGRASDYKSAHKGFKGVDAQGTLSKIFKLGGRDSRSGSPMARR
# B6: Human Ubiquitin C-terminal Hydrolase: product encoded by human brain cDNA; also known as UHX1 (protein)
# chain: MAVAPRLFGGLCFRFRDQNPEVAVEGRLPISHSCVGCRRERTAMATVAANPAAAAAAVAAAAAVTEDREPQHEELPGLDSQWRQIENGESGRERPLRAGESWFLVEKHWYKQWEAYVQGGDQDSSTFPGCINNATLFQDEINWRLKEGLVEGEDYVLLPAAAWHYLVSWYGLEHGQPPIERKVIELPNIQKVEVYPVELLLVRHNDLGKSHTVQFSHTDSIGLVLRTARERFLVEPQEDTRLWAKNSEGSLDRLYDTHITVLDAALETGQLIIMETRKKDGTWPSAQLHVMNNNMSEEDEDFKGQPGICGLTNLGNTCFMNSALQCLSNVPQLTEYFLNNCYLEELNFRNPLGMKGEIAEAYADLVKQAWSGHHRSIVPHVFKNKVGHFASQFLGYQQHDSQELLSFLLDGLHEDLNRVKKKEYVELCDAAGRPDQEVAQEAWQNHKRRNDSVIVDTFHGLFKSTLVCPDCGNVSVTFDPFCYLSVPLPISHKRVLEVFFIPMDPRRKPEQHRLVVPKKGKISDLCVALSKHTGISPERMMVADVFSHRFYKLYQLEEPLSSILDRDDIFVYEVSGRIEAIEGSREDIVVPVYLRERTPARDYNNSYYGLMLFGHPLLVSVPRDRFTWEGLYNVLMYRLSRYVTKPNSDDEDDGDEKEDDEEDKDDVPGPSTGGSLRDPEPEQAGPSSGVTNRCPFLLDNCLGTSQWPPRRRRKQLFTLQTVNSNGTSDRTTSPEEVHAQPYIAIDWEPEMKKRYYDEVEAEGYVKHDCVGYVMKKAPVRLQECIELFTTVETLEKENPWYCPSCKQHQLATKKLDLWMLPEILIIHLKRFSYTKFSREKLDTLVEFPIRDLDFSEFVIQPQNESNPELYKYDLIAVSNHYGGMRDGHYTTFACNKDSGQWHYFDDNSVSPVNENQIESKAAYVLFYQRQDVARRLLSPAGSSGAPASPACSSPPSSEFMDVN
# B7: Glutamate-Binding Subunit of a Human NMDA Receptor Complex: product encoded by human brain cDNA, identified as caspase inhibitor (protein)
# chain: MSHEKSFLVSGDNYPPPNPGYPGGPQPPMPPYAQPPYPGAPYPQPPFQPSPYGQPGYPHGPSPYPQGGYPQGPYPQGGYPQGPYPQEGYPQGPYPQGGYPQGPYPQSPFPPNPYGQPQVFPGQDPDSPQHGNYQEEGPPSYYDNQDFPATNWDDKSIRQAFIRKVFLVLTLQLSVTLSTVSVFTFVAEVKGFVRENVWTYYVSYAVFFISLIVLSCCGDFRRKHPWNLVALSVLTASLSYMVGMIASFYNTEAVIMAVGITTAVCFTVVIFSMQTRYDFTSCMGVLLVSMVVLFIFAILCIFIRNRILEIVYASLGALLFTCFLAVDTQLLLGNKQLSLSPEEYVFAALNLYTDIINIFLYILTIIGRAKE
# Target: T1, human caspase-8β (Homo sapiens, UniProt Q14790)
# T1 construct: expressed in transfected cells; host or cells: Saccharomyces cerevisiae FY250, single-copy ARS/CEN vector YCpGAL1-caspase-8β-L, GAL1 promoter
# T1 sequence (Q14790 1-464 isoform Q14790-2): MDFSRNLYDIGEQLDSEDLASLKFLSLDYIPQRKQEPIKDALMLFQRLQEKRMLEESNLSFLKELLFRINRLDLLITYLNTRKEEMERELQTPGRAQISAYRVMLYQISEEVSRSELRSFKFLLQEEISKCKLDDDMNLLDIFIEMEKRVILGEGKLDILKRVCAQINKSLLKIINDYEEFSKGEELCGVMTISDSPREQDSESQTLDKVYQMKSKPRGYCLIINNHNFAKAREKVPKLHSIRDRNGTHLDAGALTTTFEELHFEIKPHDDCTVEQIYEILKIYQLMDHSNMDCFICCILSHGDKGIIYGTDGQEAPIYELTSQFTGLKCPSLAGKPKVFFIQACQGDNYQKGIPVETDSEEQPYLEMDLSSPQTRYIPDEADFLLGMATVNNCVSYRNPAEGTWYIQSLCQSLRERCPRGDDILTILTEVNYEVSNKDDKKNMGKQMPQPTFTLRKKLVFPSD
# Test: Yeast screening method: suppression of caspase-8β-induced lethality in S. cerevisiae FY250 double transformants on galactose medium
# Type: cell-based
# Conditions: FY250 co-transformed with YCpGAL1-p35-U and YCpGAL1-caspase-8β-L; SC-leucine-uracil medium with galactose
# Text: The invention includes a screening method of determining whether a compound is a caspase modulator. […] A difference between the viability indicator of the first cell and the viability indicator of the second cell is an indication that the compound is a caspase modulator.
# As described herein, the transformant expresses the caspase when an inducer of the inducible promoter of the caspase vector is provided to the caspase transformant. When the caspase transformant expresses the caspase, cytotoxicity ensues in the caspase transformant. If an inhibitor of the caspase is provided to the caspase transformant prior to the onset of cytotoxicity, the caspase transformant may be enabled to survive expression of the caspase or the onset of cytotoxicity may be delayed.
# The gene encoding p35 was cloned into a yeast-based expression vector designated YCpGAL1-U (wherein U designates a URA3 selectable marker) to yield a YCpGAL1-p35-U inhibitor vector. Yeast cells were co-transformed with the inhibitor vector, YCpGAL1-p35-U, and with the caspase vector, YCpGAL1-caspase-8β-L, to yield a double transformant. Double transformants were plated on SC-leucine-uracil medium supplemented with dextrose to repress GAL1 promoter function. Serial ten-fold dilutions of individual double transformants grown in SC-leucine-uracil medium containing dextrose were prepared and spotted onto SC-leucine-uracil medium comprising dextrose or galactose.
# Individual viable colonies of double transformant are isolated, and the test vector comprising the unknown cDNA is isolated.
# The screening method used in this Example was performed as follows. A yeast double transformant was prepared by transforming S. cerevisiae strain FY250 with two yeast expression vectors. The first yeast expression vector comprised cDNA encoding a self-activating form of human caspase-8β operably linked to a GAL1 promoter and a LEU2 selectable marker. This first vector was a single copy vector and was designated YCpGAL1-caspase-8β-L. A plurality of second yeast expression vectors was used, each comprising a single random human cDNA sequence operably linked to a GAL1 promoter and a URA3 selectable marker. The cDNA sequences used to generate the plurality of second yeast expression vectors were obtained from a library of cDNAs prepared from human brain cells. The second vectors were multicopy vectors.
# Double transformants were propagated on plates containing SC-leucine-uracil agar comprising dextrose. Colonies of double transformants were replica plated on plates containing medium comprising galactose, whereby expression of caspase-8β and of any product encoded by the cDNA of the second vector was induced. […] The second vector was recovered from individual colonies of double transformants which were able to survive on the galactose-containing medium and used, along with the first vector, to transform fresh FY250 cells. […] The identity of individual products encoded by the cDNA of individual second vectors was established by determining the nucleotide sequence of the cDNA and comparing the sequence with databases of known human gene sequences, including Genbank, the EST Database, and the Human Genome Database.
row,Molecule,survival of double transformants on galactose-containing test medium
1,B1,survived on this medium

# Same assay, conditions: FY250 double transformants, GAL1-driven expression, galactose-containing medium
row,Molecule,identified as a caspase inhibitor (product of human brain cDNA suppressing caspase-8β-induced cell death)
1,B2,caspase inhibitor
2,B3,caspase inhibitor
3,B4,caspase inhibitor
4,B5,caspase inhibitor
5,B6,caspase inhibitor

# Same assay, conditions: Table 1 Caspase Modulators; identified using the screening method of the invention
row,Molecule,Caspase Inhibitor
1,B2,✓
2,B7,✓
3,B3,✓
4,B4,✓
5,B5,✓
6,B6,✓
7,B1,✓
